Laboratory results published in patent US20040229237.

Test system: mouse MIST (Mast Cell-specific Immunoreceptor Signal Transducer)

## Lyn kinase
  tyrosine phosphorylation of MIST: MIST was evidently phosphorylated by Lyn kinase among tyrosine kinases present in the mast cell
